The values that follow come from the supplement of paper PMC10567573.

A short description of the data set: protein stability index of a GFP-peptide fusion (GPS, HEK-293T) (PSI 1-6); higher = more stable.
Setting [1] is: treatment: DMSO, c terminus: a fixed tail appended.
The mark [2] stands for this setting: treatment: MLN4924 1 uM, 8 h, c terminus: a fixed tail appended.
Where [3] appears, read: treatment: DMSO, c terminus: native.
[4] abbreviates: treatment: MLN4924 1 uM, 8 h, c terminus: native.

± gives the standard deviation.
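Also: 24-mer peptide tiles fused after GFP, lentivirally expressed, FACS-sorted into six equal bins by GFP/DsRed ratio, decoded by Illumina sequencing, PSI is the read-weighted mean bin number.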

On to GVITTTPTPPGQYFYPRGGGSGGG [JUNB], for which the protein stability index came to 4.14 ± 0.16 under setting [1] and 4.26 ± 0.095 under setting [2].

For the sequence GVKLEGKVPMHKLFLEMLEAMMD [ESRRA], the protein stability index was found to be 2.58 ± 0.74 under setting [3] and 2.66 ± 0.69 under setting [4].

Turning to GVLILFLTFFAFLHCWLNAFAEML [SOAT1], the protein stability index is 2.88 ± 0.4 under setting [1] and 2.85 ± 0.36 under setting [2].

Regarding GWLQHDFGHLSVFSTSKWNHLLHH [FADS1], the protein stability index was determined as 2.04 ± 0.44 under setting [1] and 2.19 ± 0.29 under setting [2].

For GWLSVSDDLTSVTNHGYRVQVENP [TRIM35], the protein stability index worked out at 3.12 ± 0.17 under setting [1] and 3.24 ± 0.18 under setting [2].

With GYAVNVFDIQQGFDNPQVRFFLGD [NSDHL], the protein stability index turned out to be 2.36 ± 0.38 under setting [1] and 2.57 ± 1.4 under setting [2].

Regarding GYELGIISGALLQIKTLLALSCHE [SLC2A12], the protein stability index is, setting by setting: under setting [1], 3.61 ± 0.26; under setting [2], 3.71 ± 0.1.

Take GYGGGLGAGFGGGLGAGFGGGFAG [KRT16]: the protein stability index is, setting by setting: under setting [1], 2.65 ± 0.38; under setting [2], 2.47 ± 0.28.

With GYQMLGNVVTIGLAFFPFLHRLFR [PHTF1], the protein stability index by setting is: under setting [1], 3.71 ± 0.23; under setting [2], 3.68 ± 0.34.

Consider HAASDPSSSSGRLSEPDPSHTLEE [SMOC2], for which the protein stability index runs as follows: under setting [1], 5.31 ± 0.29; under setting [2], 5.43 ± 0.15.

On to HAQTFVALCATDVKFISNPPSMVA [CCND1], for which the protein stability index under setting [1] was determined as 2.11 ± 0.29 and the protein stability index under setting [2] worked out at 2.08 ± 0.46.

For HARNGLSLKEEHRAYDLLRAASEN [IKZF1], the protein stability index under setting [1] amounted to 3.73 ± 0.28 and the protein stability index under setting [2] is 4.03 ± 0.35.

Take HCASPPPSSNNKELFYRVNYIGTK [NSDHL]: the protein stability index runs as follows: under setting [1], 3.18 ± 0.17; under setting [2], 3.31 ± 0.19.

Take HDIDCQWVDITDVPPGDYLFQVVI [LOXL2]: the protein stability index by setting is: under setting [1], 3.01 ± 0.2; under setting [2], 2.92 ± 0.41.

Regarding HDYHGILVDEEEKVLIQKNLGPKS [ADD1], the protein stability index under setting [1] came out at 4.79 ± 0.33 and the protein stability index under setting [2] was determined as 4.9 ± 0.075.

Turning to HEDHMVNLRYGFTKEVMNKYKVHG [PPEF2], the protein stability index is, setting by setting: under setting [1], 3.24 ± 0.51; under setting [2], 3.58 ± 0.53.

As for HEPLSKERVEAFSDGVYAIVATLL [TMEM175], the protein stability index is, setting by setting: under setting [1], 2.15 ± 0.28; under setting [2], 2.15 ± 0.11.

On to HGASPGLRDGGGLTPLELLLRQLG [ANKRD9], for which the protein stability index reads like this: under setting [1], 2.66 ± 0.15; under setting [2], 2.76 ± 0.35.

Regarding HGDSQQTHLLKQGRSSMGTGLSGG [CRY1], the protein stability index is 4.36 ± 0.16 under setting [1] and 4.43 ± 0.14 under setting [2].

As to HGGLYKPVQCHPSTGYCWCVLVDT [SMOC2], the protein stability index by setting is: under setting [1], 2.46 ± 0.86; under setting [2], 2.39 ± 0.74.

On to HHHLHKTLREITDQEHNVAALKQA [TEKT4], for which the protein stability index turned out to be 4.35 ± 0.13 under setting [1] and 4.52 ± 0.11 under setting [2].

In the case of HHSTQPKRNKRNPIFQDSQDTEVF [FAM104B], the protein stability index by setting is: under setting [1], 4.19 ± 0.34; under setting [2], 4.63 ± 0.27.

In the case of HKSHRGMTPAEAEMHFLENAKKLS [EPB41L3], the protein stability index by setting is: under setting [1], 4.38 ± 0.21; under setting [2], 4.25 ± 0.47.

On to HLNGHAMCQTKHSPWADGTPCGPA [ADAMTS4], for which the protein stability index by setting is: under setting [1], 3.12 ± 0.35; under setting [2], 3.11 ± 0.22.

Consider HLVPEPDRLEEQLPWLSLRALKFR [DNAAF3], for which the protein stability index was determined as 2.63 ± 0.1 under setting [1] and 2.78 ± 0.26 under setting [2].

Take HMGTNVIVANTMPTHLSNGQMSTP [HNF4A]: the protein stability index was 3.6 ± 0.18 under setting [1] and 3.66 ± 0.33 under setting [2].

As for HMILENCSISKMEEEAGQTSIEPS [ZER1], the protein stability index under setting [1] is 5.14 ± 0.13 and the protein stability index under setting [2] was 5.2 ± 0.18.

As to HNAHQLAAWCLHHICTNYNSVCSK [RHOBTB1], the protein stability index under setting [1] is 2.85 ± 0.55 and the protein stability index under setting [2] turned out to be 2.79 ± 0.59.

As to HNAWLSYSLLPQSTAPGLFLVSTH [PCDHGC5], the protein stability index runs as follows: under setting [1], 2.51 ± 0.58; under setting [2], 2.63 ± 0.56.

HQLVMEGYNWCHDRNVVTIFSAPN [PPP2CA]: the protein stability index runs as follows: under setting [1], 2.51 ± 0.14; under setting [2], 2.49 ± 0.18.

Consider HTGDKPYKCAECGKSFCHSTHLTV [ZNF8], for which the protein stability index runs as follows: under setting [1], 3.8 ± 0.12; under setting [2], 3.85 ± 0.36.

With HTPLISKSQSLRSVRRSESWARPR [RASAL3], the protein stability index is 3.45 ± 0.29 under setting [1] and 3.66 ± 0.22 under setting [2].

Turning to HTPQSSVKTSVPSSKSSGDLVDLF [CLINT1], the protein stability index worked out at 4.03 ± 0.16 under setting [1] and 4.26 ± 0.053 under setting [2].

For HTSVVCYLLDYPNNLLSAPPPDVT [ANKRD17], the protein stability index stood at 2.46 ± 0.39 under setting [1] and 2.26 ± 0.44 under setting [2].

On to HVPLLAEPSFAQFSQEIGLASLGA [TPH1], for which the protein stability index is, setting by setting: under setting [1], 2.93 ± 0.26; under setting [2], 3.09 ± 0.12.

As for HYEFNLSRMKFRGNGALSNISDLP [LCOR], the protein stability index runs as follows: under setting [1], 2.7 ± 0.18; under setting [2], 2.76 ± 0.23.

For the sequence HYRELLDSLPMDAYTHGCILHPEL [GDAP1], the protein stability index turned out to be 2.36 ± 0.2 under setting [1] and 2.43 ± 0.034 under setting [2].

On to IDGIQAIYGRSQNPVQPIGPQTPK [MMP1], for which the protein stability index turned out to be 3.97 ± 0.074 under setting [1] and 4.07 ± 0.36 under setting [2].

Take IDLLTFLTGQKAVKVHGLLKTFVK [GFOD1]: the protein stability index under setting [1] came to 2.93 ± 0.62 and the protein stability index under setting [2] is 2.67 ± 0.31.

Take IDQWKNKIWPEIKVPRPDALDNES [RETREG3]: the protein stability index runs as follows: under setting [1], 4.14 ± 0.24; under setting [2], 4.3 ± 0.27.

Regarding IDRQKCMAHRTRYPTILQLAGYQ [TEKT4], the protein stability index worked out at 2.26 ± 0.37 under setting [3] and 2.14 ± 0.35 under setting [4].

IEKVSVSTQTKKLSASSPRMLHRS [ZMYND11]: the protein stability index is, setting by setting: under setting [1], 3.96 ± 0.23; under setting [2], 4.03 ± 0.34.

On to IEQQQIRNALENIRKEMKLLEQAG [CRYL1], for which the protein stability index stood at 3.84 ± 0.17 under setting [1] and 4.27 ± 0.62 under setting [2].

Turning to IFATKPHVLPAVLAEVAPVVTTEH [PYCR3], the protein stability index reads like this: under setting [1], 3.33 ± 0.38; under setting [2], 3.4 ± 0.21.

In the case of IFSFGQLPLALVTWVPMFLSTLLA [SOAT2], the protein stability index came out at 2.9 ± 0.43 under setting [1] and 2.72 ± 0.56 under setting [2].

As for IGPLETMHLNAEGMLSYCDRYSEG [CRYL1], the protein stability index by setting is: under setting [1], 3.47 ± 0.48; under setting [2], 3.27 ± 0.28.

Consider IHGGVVNIHENKRTGSLFKIWLVV [KLHDC10], for which the protein stability index runs as follows: under setting [1], 2.85 ± 0.47; under setting [2], 2.45 ± 0.62.

For the sequence IIELRRTVNALEIELQAQHSMRNS [KRT36], the protein stability index by setting is: under setting [1], 2.38 ± 0.26; under setting [2], 2.32 ± 0.33.

For the sequence IKIIKNKKAFLNQAQIELRLLELM [DYRK1B], the protein stability index was determined as 2.75 ± 0.47 under setting [1] and 2.6 ± 0.43 under setting [2].

For the sequence IKKLIYVHLVIWLLLVAKMSVGHL [JAGN1], the protein stability index stood at 3.31 ± 0.35 under setting [1] and 3.13 ± 0.24 under setting [2].

Regarding IKLLQSSGADFHKKDKCGRTPLHY [ANKRD44], the protein stability index turned out to be 2.42 ± 0.2 under setting [1] and 2.6 ± 0.38 under setting [2].

As for IKVTSATSVNLGILTADLYSLFVG [SLC35F2], the protein stability index is, setting by setting: under setting [1], 3.07 ± 0.36; under setting [2], 2.92 ± 0.42.

Consider ILAVSFAPLVQPSKNDNGKPDSVG [PCMTD1], for which the protein stability index is 2.98 ± 0.27 under setting [1] and 3.14 ± 0.35 under setting [2].

ILIELAMRGRIYLEPPTMRKKRLL [GOLPH3L]: the protein stability index is, setting by setting: under setting [1], 2.66 ± 0.25; under setting [2], 2.74 ± 0.66.

As for ILIIRFEMPYNIWCDGCKNHIGMG [YJU2B], the protein stability index runs as follows: under setting [1], 3.24 ± 0.36; under setting [2], 2.96 ± 0.71.

Take ILLEYCSRRSMAHILKARKVLTEP [PLK2]: the protein stability index is 2.48 ± 0.5 under setting [1] and 2.18 ± 0.33 under setting [2].

As to ILPKQSRKSMLDAGPDSWGSDAEQ [LCOR], the protein stability index under setting [1] was determined as 4.51 ± 0.15 and the protein stability index under setting [2] amounted to 4.55 ± 0.21.

ILVYDIANRWSFDGIDRWIKEIDE [RAB40B]: the protein stability index worked out at 2.11 ± 0.57 under setting [1] and 1.93 ± 0.31 under setting [2].

On to INGLRRVLDELTLARADLEMQIEN [KRT17], for which the protein stability index was 3.1 ± 0.45 under setting [1] and 2.82 ± 0.38 under setting [2].

Take IPSTPEEVSADDETPNPPQSAQIA [MAGEA10]: the protein stability index was 5.42 ± 0.1 under setting [1] and 5.44 ± 0.16 under setting [2].

As to IQRIDENVLGAQLDVEAAHSEILK [STX5], the protein stability index is, setting by setting: under setting [1], 4.15 ± 0.17; under setting [2], 4.22 ± 0.25.

As to IQSGAWVCYQYPGYRGYQYILECD [CRYBA1], the protein stability index under setting [1] was 2.39 ± 0.38 and the protein stability index under setting [2] came out at 2.58 ± 0.59.

In turn, IRRFLSAFHEPQVGLIQAAQQLLC [DFFB] showed a protein stability index under setting [1] of 2.18 ± 0.38 and a protein stability index under setting [2] of 2.14 ± 0.17.

Regarding IRVQGREFRAHRAVLAASSPYFHD [ZBTB22], the protein stability index was found to be 2.55 ± 0.21 under setting [1] and 2.41 ± 0.16 under setting [2].

Turning to ISHEEQKSVRLARELESREAELRR [CHCHD6], the protein stability index by setting is: under setting [1], 5 ± 0.3; under setting [2], 5.14 ± 0.37.

As for ISLDVLQPSFPEILLESHMVMIRG [POMT2], the protein stability index is, setting by setting: under setting [1], 2.34 ± 0.39; under setting [2], 2.41 ± 0.71.

Turning to ISSIKEKYPSHSFIGEESVAAGEK [IMPA1], the protein stability index is, setting by setting: under setting [1], 4.8 ± 0.13; under setting [2], 4.81 ± 0.23.

On to ISVQNYKQVCKIAALHGLEETKKL [KLHL14], for which the protein stability index is 2.29 ± 0.24 under setting [1] and 2.31 ± 0.3 under setting [2].

On to IVRLHDSISEEGFHYLVFDLVTGG [CAMK2B], for which the protein stability index is 2.85 ± 0.66 under setting [1] and 2.65 ± 0.52 under setting [2].

Regarding IVTTVTTVQSRPRIDGKLDSPSRS [C2CD2L], the protein stability index is, setting by setting: under setting [1], 3.4 ± 0.19; under setting [2], 3.49 ± 0.27.

In turn, IYRDSYPRNPTVRWGYVAMKFAQV [SOAT1] returned a protein stability index under setting [1] of 2.79 ± 0.47 and a protein stability index under setting [2] of 2.67 ± 0.53.

On to KAKHFKCHICHKKLYTGPGLAIHC [ZNF207], for which the protein stability index under setting [1] was determined as 2.33 ± 0.23 and the protein stability index under setting [2] came to 2.62 ± 0.76.
